Molecular target: TNFα from R&D Systems (L929 cytotoxicity assay)
Test: cell-based or functional assay

B1: sTNFR-I 3D/N105 (receptor)
chain: DSVCPQGKYIHPQNNSICCTKCHKGTYLYNDCPGPGQDTDCRECESGSFTASENHLRHCLSCSKCRKEMGQVEISSCTVDRDTVCGCRKNQYRHYWSENLFQCFNCSLCLNGTVHLSCQEKQNTVCT
For B1, the “ED50 (ng/mL), L929 cytotoxicity assay, run #2, single data point” value was 413 ng/mL.

Reference: patent US20030054439A1 (Amgen, published 2003)
